For two substances, IC50 of Nutlin-3, total luminance of fluorescent foci per cell (stable CHO-K1 line) and IC50 of FK506 in the presence of 20 nM rapamycin, total fluorescence intensity of fluorescent foci per cell (stable HeLaS3 line) results are on record in patent US20140335539A1.

Assay [1] deals with p62(PB1)-p53. Put plainly: cell-based or functional assay.
Assay [2] concerns the target p62(PB1)-FKBP12. Put plainly: cell-based or functional assay.

For the substance AG-MDM2, in assay [1], the IC50 of Nutlin-3, total luminance of fluorescent foci per cell (stable CHO-K1 line) worked out at 8.9 µM.

mTOR(FRB)-AG: the IC50 of FK506 in the presence of 20 nM rapamycin, total fluorescence intensity of fluorescent foci per cell (stable HeLaS3 line) in assay [2] came out at 0.68 µM.
